Measured values from IntAct's records for PubMed 17237231.

B1: Macrophage scavenger receptor types I and II (Homo sapiens), P21757 (parent)
chain: MEQWDHFHNQQEDTDSCSESVKFDARSMTALLPPNPKNSPSLQEKLKSFKAALIALYLLVFAVLIPLIGIVAAQLLKWETKNCSVSSTNANDITQSLTGKGNDSEEEMRFQEVFMEHMSNMEKRIQHILDMEANLMDTEHFQNFSMTTDQRFNDILLQLSTLFSSVQGHGNAIDEISKSLISLNTTLLDLQLNIENLNGKIQENTFKQQEEISKLEERVYNVSAEIMAMKEEQVHLEQEIKGEVKVLNNITNDLRLKDWEHSQTLRNITLIQGPPGPPGEKGDRGPTGESGPRGFPGPIGPPGLKGDRGAIGFPGSRGLPGYAGRPGNSGPKGQKGEKGSGNTLTPFTKVRLVGGSGPHEGRVEILHSGQWGTICDDRWEVRVGQVVCRSLGYPGVQAVHKAAHFGQGTGPIWLNEVFCFGRESSIEECKIRQWGTRACSHSEDAGVTCTL
partner: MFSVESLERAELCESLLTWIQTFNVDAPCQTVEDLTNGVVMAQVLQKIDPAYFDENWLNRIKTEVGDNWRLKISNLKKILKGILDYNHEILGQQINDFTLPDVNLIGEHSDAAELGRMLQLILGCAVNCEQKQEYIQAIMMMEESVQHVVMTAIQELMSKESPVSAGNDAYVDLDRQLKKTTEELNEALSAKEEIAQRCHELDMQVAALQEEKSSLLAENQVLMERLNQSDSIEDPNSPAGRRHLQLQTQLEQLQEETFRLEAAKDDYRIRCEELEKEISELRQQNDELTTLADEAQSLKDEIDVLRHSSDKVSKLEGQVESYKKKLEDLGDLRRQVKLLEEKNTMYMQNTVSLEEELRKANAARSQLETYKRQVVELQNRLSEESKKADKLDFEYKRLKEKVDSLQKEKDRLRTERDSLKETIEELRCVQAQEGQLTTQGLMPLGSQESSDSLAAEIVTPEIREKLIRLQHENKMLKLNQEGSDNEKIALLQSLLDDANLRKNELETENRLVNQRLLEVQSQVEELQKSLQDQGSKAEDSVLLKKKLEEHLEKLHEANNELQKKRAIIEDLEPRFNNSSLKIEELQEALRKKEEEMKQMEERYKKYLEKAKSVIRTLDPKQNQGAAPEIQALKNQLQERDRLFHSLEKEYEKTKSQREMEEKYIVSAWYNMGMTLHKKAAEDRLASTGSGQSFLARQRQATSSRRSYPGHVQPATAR

Variants of: B1
Conditions: with hook3_human HOOK3, Q86VS8

| Variant | effect of a mutation on the interaction |
| --- | --- |
| MEQWDHFHNQQAATASCSESVKFDARSMTALLPPNPKNSPSLQEKLKSFKAALIALYLLVFAVLIPLIGIVAAQLLKWETKNCSVSSTNANDITQSLTGKGNDSEEEMRFQEVFMEHMSNMEKRIQHILDMEANLMDTEHFQNFSMTTDQRFNDILLQLSTLFSSVQGHGNAIDEISKSLISLNTTLLDLQLNIENLNGKIQENTFKQQEEISKLEERVYNVSAEIMAMKEEQVHLEQEIKGEVKVLNNITNDLRLKDWEHSQTLRNITLIQGPPGPPGEKGDRGPTGESGPRGFPGPIGPPGLKGDRGAIGFPGSRGLPGYAGRPGNSGPKGQKGEKGSGNTLTPFTKVRLVGGSGPHEGRVEILHSGQWGTICDDRWEVRVGQVVCRSLGYPGVQAVHKAAHFGQGTGPIWLNEVFCFGRESSIEECKIRQWGTRACSHSEDAGVTCTL [E12A;D13A;D15A] | disrupting interaction |
